Reference: patent publication US20250059278A1 (SICHUAN HUIYU PHARMACEUTICAL, published 2025)
Residue numbers refer to the chain shown, from its start.

B1: Positive control antibody OKT3 (antibody, V domains shown)
VH: not shown
VL: QIVLTQSPAIMSASPGEKVTMTCSASSSVSYMNWYQQKSGTSPKRWIYDTSKLASGVPAHFRGSGSGTSYSLTISGMEAEDAATYYCQQWSSNPFTFGSGTKLEI
B2: CD3 monoclonal antibody M28 (antibody, human IgG1, lambda, V domains shown)
VH: EVQLVESGGGLVQPGGSLRLSCAASGFTFNTYAMNWVRQAPGKGLEWVARIRSKYNNYATYYADSVKDRFTISRDDSKSILYLQMNSLKTEDTAMYYCVRHHNFGNSYVSWFAYWGQGTLVTVSS
VL: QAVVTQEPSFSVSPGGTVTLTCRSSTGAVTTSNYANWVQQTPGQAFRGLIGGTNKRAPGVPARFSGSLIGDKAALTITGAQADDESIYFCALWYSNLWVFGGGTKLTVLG
notes: IgG: VH28 + IgG1 mutant CH, VL-1 + CL
B3: Control antibody 1 (antibody, V domains shown)
VH: B2 VH with G15K, R19K, K78Q, S87N, H102G, S125A
VL: QAVVTQESALTTSPGETVTLTCRSSTGAVTTSNYANWVQEKPDHLFTGLIGGTNKRAPGVPARFSGSLIGDKAALTITGAQTEDEAIYFCALWYSNLWVFGGGTKLTVL
notes: also called positive control antibody 1
B4: CD3 monoclonal antibody M4 (antibody, human IgG1, lambda, V domains shown)
VH: B2 VH with S87N, M95V, H102G, G105Q, A113Q
VL: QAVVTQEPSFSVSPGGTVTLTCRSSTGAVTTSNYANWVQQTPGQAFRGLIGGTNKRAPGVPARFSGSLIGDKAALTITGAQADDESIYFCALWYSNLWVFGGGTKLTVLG
notes: IgG: VH4 + IgG1 mutant CH, VL-1 + CL
B5: CD3 monoclonal antibody M10 (antibody, human IgG1, lambda, V domains shown)
VH: B2 VH with I80S, M95V, H102S, G105R
VL: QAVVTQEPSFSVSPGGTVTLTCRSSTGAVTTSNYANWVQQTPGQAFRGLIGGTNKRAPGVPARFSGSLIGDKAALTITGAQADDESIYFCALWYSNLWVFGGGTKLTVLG
notes: IgG: VH10 + IgG1 mutant CH, VL-1 + CL
B6: CD3 monoclonal antibody M9 (antibody, human IgG1, lambda, V domains shown)
VH: B2 VH with D68G, H102G, A113K
VL: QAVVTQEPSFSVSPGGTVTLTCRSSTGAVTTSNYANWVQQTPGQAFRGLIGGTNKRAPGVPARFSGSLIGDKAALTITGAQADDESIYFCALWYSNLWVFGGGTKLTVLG
notes: IgG: VH9 + IgG1 mutant CH, VL-1 + CL
B7: CD3 monoclonal antibody M7 (antibody, human IgG1, lambda, V domains shown)
VH: B2 VH with I80S, S87N, H101A, H102G, A113E
VL: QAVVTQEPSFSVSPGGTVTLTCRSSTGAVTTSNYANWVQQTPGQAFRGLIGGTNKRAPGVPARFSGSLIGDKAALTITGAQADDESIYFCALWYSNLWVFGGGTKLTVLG
notes: IgG: VH7 + IgG1 mutant CH, VL-1 + CL
B8: CD3 monoclonal antibody M5 (antibody, human IgG1, lambda, V domains shown)
VH: B2 VH with M95V, H102G, G105K
VL: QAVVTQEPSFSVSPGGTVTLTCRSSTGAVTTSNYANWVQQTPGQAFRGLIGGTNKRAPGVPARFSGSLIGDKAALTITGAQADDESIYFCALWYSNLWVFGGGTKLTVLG
notes: IgG: VH5 + IgG1 mutant CH, VL-1 + CL
B9: CD3 monoclonal antibody M11 (antibody, human IgG1, lambda, V domains shown)
VH: B2 VH with I80S, M95V, H102S, G105V
VL: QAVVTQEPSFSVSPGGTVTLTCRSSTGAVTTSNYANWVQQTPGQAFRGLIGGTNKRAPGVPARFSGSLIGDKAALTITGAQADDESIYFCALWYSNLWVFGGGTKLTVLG
notes: IgG: VH11 + IgG1 mutant CH, VL-1 + CL
B10: CD3 monoclonal antibody M6 (antibody, human IgG1, lambda, V domains shown)
VH: B2 VH with D68G, I80S, H102G, G105Y, Y114H
VL: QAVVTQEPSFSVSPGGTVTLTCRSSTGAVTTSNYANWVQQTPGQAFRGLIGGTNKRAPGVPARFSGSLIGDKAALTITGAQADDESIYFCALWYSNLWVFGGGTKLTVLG
notes: IgG: VH6 + IgG1 mutant CH, VL-1 + CL
B11: CD3 monoclonal antibody M3 (antibody, human IgG1, lambda, V domains shown)
VH: B2 VH with H102G, A113E
VL: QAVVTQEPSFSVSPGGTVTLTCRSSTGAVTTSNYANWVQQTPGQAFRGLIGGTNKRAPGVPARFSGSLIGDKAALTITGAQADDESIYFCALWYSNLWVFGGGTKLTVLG
notes: IgG: VH3 + IgG1 mutant CH, VL-1 + CL
B12: CD3 monoclonal antibody M1 (antibody, human IgG1, lambda, V domains shown)
VH: B2 VH with D68G, S87N, H102A, G105L
VL: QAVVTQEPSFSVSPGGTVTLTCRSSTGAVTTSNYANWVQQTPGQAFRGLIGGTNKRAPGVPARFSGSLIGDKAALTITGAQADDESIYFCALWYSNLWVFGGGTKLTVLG
notes: IgG: VH1 + IgG1 mutant CH, VL-1 + CL
B13: CD3 monoclonal antibody M2 (antibody, human IgG1, lambda, V domains shown)
VH: B2 VH with D68G, I80S, H101A, H102K
VL: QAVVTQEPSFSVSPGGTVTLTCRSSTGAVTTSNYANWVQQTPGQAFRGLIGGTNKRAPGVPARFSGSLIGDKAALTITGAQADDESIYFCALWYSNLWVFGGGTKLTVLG
notes: IgG: VH2 + IgG1 mutant CH, VL-1 + CL
B14: CD3 monoclonal antibody M8 (antibody, human IgG1, lambda, V domains shown)
VH: B2 VH with I80S, S87N, H102G, S107T, Y114M
VL: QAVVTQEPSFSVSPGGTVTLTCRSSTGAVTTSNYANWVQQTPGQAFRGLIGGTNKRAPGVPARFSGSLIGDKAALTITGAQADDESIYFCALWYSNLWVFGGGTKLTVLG
notes: IgG: VH8 + IgG1 mutant CH, VL-1 + CL

How the values were obtained:
[1] = target: T1, Monkey CD3 on cynomolgus HSC-F cells (cynomolgus monkey, UniProt Q95LI5 22-198; Q95LI7 23-181; Q95LI8 22-171); assay: flow cytometry on HSC-F cells
T1 construct: whole, on cells; also called Monkey CD3-expressing cynomolgus HSC-F cells; cynomolgus monkey CD3-expressing HSC-F cells

[2] = target: T2, Human CD3 on Jurkat cells (human, UniProt P07766 23-207; P09693 23-182; P04234 22-171); assay: flow cytometry on Jurkat cells
T2 construct: whole, on cells; also called Human CD3-expressing Jurkat cells; Jurkat (naturally expressing human CD3)

[3] = target: T3, Human CD3εγ recombinant antigen (acrobiosystems, Cat. No. CDG-H52W5) (human, UniProt P07766 23-126; P09693 23-116); assay: SPR chip (Carterra), antibody captured, antigen in flow;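 further: antibodies captured through anti-human IgG Fc at roughly 1000 RU, kinetic constants fitted with a 1:1 binding model in Carterra analysis software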
T3 construct: Bought recombinant protein
Protocol: Antibodies at three concentrations of 4, 2, and 1 μg/mL were immobilized on the HC200M chip containing anti-human IgG Fc secondary antibody (Xantec, Cat. No.: HC200M), and the antibody binding amount was controlled to approximately 1000RU. […] The kinetic constants were obtained by fitting using the 1:1 binding model of Kinetics software from Carterra.

Binder | binding result [1] | EC50 [1] | EC50 [2] | Kd [3] | koff [3] | kon [3]
B1 | no binding (tested: 2 µg/ml starting concentration) | – | – | – | – | –
B2 | – | 0.287 nM | 0.854 nM | 2.53 nM | 0.00237 s⁻¹ | 938000 M⁻¹ s⁻¹
B3 | – | 0.487 nM | 0.473 nM | – | – | –
B4 | – | 0.434 nM | 0.402 nM | 3.4 nM | 0.00517 s⁻¹ | 1.52e+06 M⁻¹ s⁻¹
B5 | – | 0.194 nM | 1.23 nM | 2.15 nM | 0.00653 s⁻¹ | 3.04e+06 M⁻¹ s⁻¹
B6 | – | 0.237 nM | 1.51 nM | 1.92 nM | 0.0025 s⁻¹ | 1.3e+06 M⁻¹ s⁻¹
B7 | – | 0.69 nM | 1.71 nM | 2.39 nM | 0.0011 s⁻¹ | 460000 M⁻¹ s⁻¹
B8 | – | 0.152 nM | 0.154 nM | 5.84 nM | 0.0101 s⁻¹ | 1.74e+06 M⁻¹ s⁻¹
B9 | – | 0.169 nM | 0.13 nM | 2.95 nM | 0.00677 s⁻¹ | 2.3e+06 M⁻¹ s⁻¹
B10 | – | 0.172 nM | 0.169 nM | 3.63 nM | 0.00354 s⁻¹ | 973000 M⁻¹ s⁻¹
B11 | – | 0.315 nM | 0.261 nM | 1.36 nM | 0.0015 s⁻¹ | 1.1e+06 M⁻¹ s⁻¹
B12 | – | 0.117 nM | 0.581 nM | 2.57 nM | 0.0105 s⁻¹ | 4.09e+06 M⁻¹ s⁻¹
B13 | – | 0.225 nM | 0.214 nM | 6.6 nM | 0.00363 s⁻¹ | 550000 M⁻¹ s⁻¹
B14 | – | 0.186 nM | 0.268 nM | 5.16 nM | 0.0032 s⁻¹ | 620000 M⁻¹ s⁻¹
